Assay [1] concerns the target T1, LILRB4 on LILRB4阳性细胞THP-1 (human, UniProt Q8NHJ6 22-448).
T1 construct: whole, on cells; also called LILRB4阳性肿瘤细胞THP-1; 人单核白血病细胞THP-1
Description: flow cytometry on THP-1 cells. A general note: A flow cytometer gives signals particle by particle.

Assay [2] concerns the target T2, Human LILRB4/CD85k/ILT3 Protein (ECD, His Tag), Sino Biological (human, UniProt Q8NHJ6 22-259).
T2 construct: extracellular domain; Bought recombinant protein with a His tag; also called 人LILRB4蛋白; LILRB4蛋白
Description: ELISA, coated LILRB4 ECD-His, antibody titrated.

Assay [3] has as its target T3, LILRB5/CD85c Protein, Human, Recombinant (ECD, His Tag), Sino Biological (human, UniProt O75023 24-458).
T3 construct: extracellular domain; Bought recombinant protein with a His tag; also called LILRB5蛋白
Kind of assay: ELISA, coated protein.

Assay [4] has as its target T4, ILT4 Protein, Human, Recombinant (ECD, His Tag), Sino Biological (human, UniProt Q8N423 22-460).
T4 construct: extracellular domain; Bought recombinant protein with a His tag; also called LILRB2蛋白
Description: ELISA, coated protein. For orientation: An ELISA detects its analyte on a solid surface through an enzyme-linked reagent.

The target in assay [5] is T5, LILRB3 Protein, Human, Recombinant (ECD, His Tag), Sino Biological (human, UniProt O75022 24-443).
T5 construct: extracellular domain; Bought recombinant protein with a His tag; also called LILRB3蛋白
T5 sequence (O75022 24-443): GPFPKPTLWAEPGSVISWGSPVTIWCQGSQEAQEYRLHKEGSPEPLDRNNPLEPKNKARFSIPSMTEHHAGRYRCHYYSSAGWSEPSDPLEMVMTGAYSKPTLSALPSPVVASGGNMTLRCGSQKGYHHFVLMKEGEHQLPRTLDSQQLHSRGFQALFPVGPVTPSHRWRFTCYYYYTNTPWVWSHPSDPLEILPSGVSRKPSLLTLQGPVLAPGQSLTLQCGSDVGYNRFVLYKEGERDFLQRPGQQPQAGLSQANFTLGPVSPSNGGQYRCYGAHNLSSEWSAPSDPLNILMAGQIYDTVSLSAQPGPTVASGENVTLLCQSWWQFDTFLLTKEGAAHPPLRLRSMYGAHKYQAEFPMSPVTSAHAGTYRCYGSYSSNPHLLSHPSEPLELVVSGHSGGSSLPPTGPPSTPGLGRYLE
Kind of assay: ELISA, coated protein.

The target in assay [6] is T6, LILRB1 Protein, Human, Recombinant (ECD, His Tag), Sino Biological (human, UniProt Q8NHL6 24-461).
T6 construct: extracellular domain; Bought recombinant protein with a His tag; also called LILRB1蛋白
T6 sequence (Q8NHL6 24-461): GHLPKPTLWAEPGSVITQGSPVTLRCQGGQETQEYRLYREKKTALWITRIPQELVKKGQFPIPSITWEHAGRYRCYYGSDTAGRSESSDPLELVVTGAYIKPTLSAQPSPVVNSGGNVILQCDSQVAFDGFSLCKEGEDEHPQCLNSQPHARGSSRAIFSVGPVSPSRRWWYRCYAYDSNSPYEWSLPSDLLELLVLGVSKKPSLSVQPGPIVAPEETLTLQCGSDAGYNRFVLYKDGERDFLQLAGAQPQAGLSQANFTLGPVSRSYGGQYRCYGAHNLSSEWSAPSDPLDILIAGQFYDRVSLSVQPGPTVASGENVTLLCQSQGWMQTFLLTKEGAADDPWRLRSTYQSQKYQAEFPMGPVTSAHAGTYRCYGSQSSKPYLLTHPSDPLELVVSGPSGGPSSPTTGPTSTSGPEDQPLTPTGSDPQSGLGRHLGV
Description: ELISA, coated protein.

T4 sequence (Q8N423 22-460): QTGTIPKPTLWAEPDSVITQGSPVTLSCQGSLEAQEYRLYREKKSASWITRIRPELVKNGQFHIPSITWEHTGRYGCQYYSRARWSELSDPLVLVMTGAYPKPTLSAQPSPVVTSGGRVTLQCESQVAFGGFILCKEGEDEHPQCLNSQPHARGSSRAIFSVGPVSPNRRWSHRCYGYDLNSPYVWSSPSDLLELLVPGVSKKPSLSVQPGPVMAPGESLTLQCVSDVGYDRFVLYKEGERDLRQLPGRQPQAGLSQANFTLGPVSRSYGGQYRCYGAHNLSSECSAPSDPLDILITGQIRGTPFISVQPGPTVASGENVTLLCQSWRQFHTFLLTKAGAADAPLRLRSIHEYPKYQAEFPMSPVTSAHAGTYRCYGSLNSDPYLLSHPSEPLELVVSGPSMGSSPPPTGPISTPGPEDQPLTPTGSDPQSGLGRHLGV
T3 sequence (O75023 24-458): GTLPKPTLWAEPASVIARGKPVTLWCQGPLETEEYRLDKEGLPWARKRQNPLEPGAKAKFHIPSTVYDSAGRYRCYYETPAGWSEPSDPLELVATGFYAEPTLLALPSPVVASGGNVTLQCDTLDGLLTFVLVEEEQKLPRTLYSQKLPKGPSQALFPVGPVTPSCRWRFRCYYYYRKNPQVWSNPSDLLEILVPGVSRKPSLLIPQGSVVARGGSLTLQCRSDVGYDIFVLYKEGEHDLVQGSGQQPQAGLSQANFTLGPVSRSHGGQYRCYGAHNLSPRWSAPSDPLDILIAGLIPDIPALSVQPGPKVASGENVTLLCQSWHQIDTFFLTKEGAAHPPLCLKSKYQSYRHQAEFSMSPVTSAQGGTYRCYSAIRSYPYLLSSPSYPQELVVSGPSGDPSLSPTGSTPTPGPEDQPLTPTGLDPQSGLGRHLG

B1: 全人源抗体2B9 (antibody, V domains shown)
VH: EVQLVQSGGGLIQPGGSLRLSCAASGFTVSSNYMSWVRQAPGKGLEWVSVIYSGGSTYYADSVKGRFTISRDNSKNTLYLQMNSLRAEDTAVYYCAKGATGGHDAFDIWGQGTTVTVSS
VL: not shown
notes: Fully human antibody from a phage library, made as a whole antibody in CHO-S cells; IgG4 heavy chain constant region, Ig kappa light chain
As to B1, the binding result is recorded as “binds” in assay [1]; “binds” in assay [2]; “no binding (tested: 10 μg/mL)” in assay [3]; “no binding (tested: 10 μg/mL)” in assay [4]; “no binding (tested: 10 μg/mL)” in assay [5]; “no binding (tested: 10 μg/mL)” in assay [6].

Values taken from CN114716554A (dated 2022).
